Source: patent US11110182B2, “Multifunctional RNA nanoparticles and methods for treating cancer and therapeutic resistant cancer” (University of Cincinnati, priority 2016, dated 2021)

Test system: BT474 orthotopic xenograft tumors
Assay: In vivo targeting and biodistribution imaging of AF647-labeled nanoparticles
Set-up: species or system mice
Settings: for signals in liver and kidney, biodistribution: AF647 fluorescence of excised organs; for accumulation in the xenograft tumors, biodistribution of excised organs and tumors: AF647 fluorescence of excised tumors; for localization in frozen tumor sections (penetration to tumor cells): confocal microscopy, microvessels stained with anti-CD31
Method: FIG. 2A) Confocal microscopy analyses of the internalization of AF647-labeled control and pRNA-HER2apt-siMED1 nanoparticles by BT474 cells. Scale bar: 10 μm. FIG. 2B) Flow cytometry assays of the cellular uptake of AF647-labeled control and pRNA-HER2apt-siMED1 nanoparticles by BT474 cells. FIG. 2C) IVIS Lumina live imaging of BT474 orthotopic xenograft mice 24 hrs after i.v. injection of indicated AF647-labeled pRNA nanoparticles (10 mg/Kg). FIG. 2D) Major organs and tumors of above mice were excised and imaged for AF647 fluorescence. FIG. 2E) Frozen tumor sections were examined for localization of AF647-labeled pRNA nanoparticles (red) using confocal microscopy. The blood vessels were stained with anti-CD31 primary antibody and Alexa488-conjugated secondary antibody (green). The nuclei were stained with DAPI (blue). Scale bar: 50 μm. FIG. 2F) The fluorescence intensity of AF647-labeled pRNA nanoparticles (red) in frozen tumor sections was quantified with Image-pro Plus software.
Migration and metastasis assay. The 8-μm-pore-size polycarbonate membrane, which separates the two chambers of a 6.5-mm Transwell (Costar), was coated with or without 1:8 DMEM-diluted Matrigel (Corning). Transwell assay was performed as previously described.^57 Briefly, BT474 cells were treated with pRNAs alone or together with 4-hydroxy-tamoxifen (4-OHT) for 48 h and starved with serum-free DMEM containing 0.2% BSA overnight. On the next day, cells were collected and 2×10^5 cells were seeded to the upper chamber of Transwell. The lower chamber was filled with 600 μL DMEM medium containing 10% FBS. After incubation at 37° C. for 24 h, cells on the membranes were fixed and stained with 0.1% crystal violet in 20% ethanol solution. Cells at top side of membranes were removed completely, and cells at the bottom side were examined with an Olympus SZX12 microscope and counted. • Mammosphere culture and breast cancer stem cell analyses. BT474 cells were treated with pRNAs for 48 h. Then, cells were suspended in DMEM/F12 medium supplemented with 1×B27 (Thermo Fisher), 20 ng/mL bFGF and 20 ng/mL EGF (R&D), and added into 24-well ultralow attachment plates. After treatment with or without 1 μM 4-OHT for 7 days, mammosphere formation was recorded using an Axiovert S100 TV inverted microscope (Zeiss). Xenograft tumor tissues were cut into small pieces and digested with trypsin and collagenase at 37° C. for 1 h, and tumor cells were collected and rinsed with pre-cold PBS. All cells were stained with FITC-conjugated anti-CD44 antibody and PE-conjugated anti-CD24 antibody (BD Pharmingen) in the dark on ice for 30 min. After resuspension with 0.5 mL PBS buffer, CD44^+/CD24^−/low cell population was analyzed by flow cytometry. • Orthotopic xenograft breast tumor mouse model, in vivo imaging and anti-tumor therapy. Six-week-old female athymic nude mice were purchased from Charles River Laboratories, and all animal procedures were performed under IACUC-approved protocols at the University of Cincinnati. Athymic nude mice were orthotopically injected with 1×10^7 BT474-luc cells mixed with matrigel into the fat pads of the forth pair of mammary glands. When the tumor sizes reached 100-150 mm^3, the mice were randomly divided into four groups (4/group) and intravenously (i.v.) injected with pRNAs (4 mg/Kg) once a week for three weeks. For tamoxifen treatments, 0.5 mg tamoxifen (Sigma) dissolved in sesame oil was intraperitoneally (i.p.) injected into mice 5 days a week for three weeks. The tumor volume was monitored every 3 days, and tumor size was calculated using the formula: volume=0.5×(width)^2×(length). For in vivo pRNA nanoparticle targeting and tumor imaging, mice were i.v. injected with AF647-conjugated pRNA nanoparticles or i.p. injected with D-luciferin and imaged using the IVIS Lumina imaging system with Living Images 3.0 software (Caliper Life Sciences). […]

B1: pRNA-HER2apt-siMED1: 3-WJ pRNA nanoparticle bearing a HER2-targeting RNA aptamer and two different MED1 siRNAs; strands p1 SEQ ID NO: 3, p2 SEQ ID NO: 4 (nucleic acid)
chain 1: GGACAGUGAAAGUGAGUCAAAGGAUCAAUCAUGGCCAAAGAUGUUACUUUGAGAGCCUU
chain 2: GGCUCUCAAAGUAACAUCUAAGGCCAUGUGUAUGUGGGGGGAGGACGAUGCGGUCUGCUGUGCUUGAUAUGCCCCAGACGACUCGCCCCCCACAUACUUUGUUGAUCCAAUGACUCACUUUCACUGUCCUU
modifications: 2'-F modification; third strand may lack entry; pRNA-HER2apt-siMED1, p1; pRNA-HER2apt-siMED1, p2
AF647-conjugated, 10 mg/Kg i.v., 24 hrs
  accumulation in the area of the xenograft tumor, live animal imaging: strongly accumulated
  signals in liver and kidney, biodistribution: low levels of residual signals
  accumulation in the xenograft tumors, biodistribution of excised organs and tumors: predominant accumulation
  localization in frozen tumor sections (penetration to tumor cells): very effectively penetrated to tumor cells

B2: pRNA-HER2apt^mut-siMED1: control pRNA nanoparticle with mutant HER2 aptamer; strands p1 SEQ ID NO: 5, p2 SEQ ID NO: 6 (nucleic acid)
chain 1: B1 chain 1
chain 2: GGCUCUCAAAGUAACAUCUAAGGCCAUGUGUAUGUGGGAUGAGGAGUAUGAAGAUACCUGUACUUGAUAUGCCCCAGACGACAUUCCCCCCACAUACUUUGUUGAUCCAAUGACUCACUUUCACUGUCCUU
modifications: pRNA-HER2apt(mut)-siMED1, p1; pRNA-HER2apt(mut)-siMED1, p2
  signals in liver and kidney, biodistribution: low levels of residual signals
  accumulation in the xenograft tumors, biodistribution of excised organs and tumors: not
  localization in frozen tumor sections (penetration to tumor cells): remained in the microvessels
